Experimental findings from article PMC6537586 are described below.

For this data set the following is noted: ubiquitination at K571.

ELL2: K571R: the degradation_or_half_life entry is reported as “no change, half-life less than 6 h”.
